This note sets out measurements from the supplement of paper PMC10724198.

Data set [1] deals with Saccharomyces cerevisiae. Kind of data set: protein stability index of tFT-peptide fusion in deletion strain of DOA10 (PSI (0-1 scale)); higher = more stable (slower turnover). The procedure:
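MPS profiling in S. cerevisiae of two library types built from selected 12-aa C-degron peptides (IN1, IN2, LN1, LN3, VN2, R1-R5, W1-W3, Atg1 and Rpa12 C-termini): saturation mutagenesis libraries and C-terminal +1 capping libraries (13 aa). Each peptide is fused to the C-terminus of a sfGFP-mCherry timer, after a GGGS linker. Cells are FACS-sorted into 8 mCherry/sfGFP bins and sequenced. PSI runs from 0 (unstable) to 1 (stable), measured once in wild type and in the das1Δ or doa10Δ background.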

Data set [2] relates to Saccharomyces cerevisiae. Kind of data set: protein stability index of tFT-peptide fusion in wild type (PSI (0-1 scale)); higher = more stable (slower turnover). The following applies: genetic background: wild type.
For data set [3], the system named is Saccharomyces cerevisiae. Kind of data set: protein stability index of tFT-peptide fusion (C-terminal peptide) (PSI (0-1 scale)); higher = more stable (slower turnover). Particulars: genetic background: wild type; temperature: 30 C.
Data set [4] has as its system Saccharomyces cerevisiae. The description is as above. The procedure: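 MPS profiling in S. cerevisiae of the tFT-X12 degron library: putative degron peptides plus stable controls, 12 aa, fused to the C-terminus of a sfGFP-mCherry timer. Cells are FACS-sorted into 8 mCherry/sfGFP bins and deep-sequenced. PSI runs from 0 (unstable) to 1 (stable). Backgrounds are wild type, das1Δ and doa10Δ at 30 °C, and wild type, das1Δ, cdc34-1 and cdc53-1 at 37 °C; 2-3 technical replicates each.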

For data set [5], the system named is Saccharomyces cerevisiae. Kind of data set: protein stability index of tFT-peptide fusion in deletion strain of DAS1 (PSI (0-1 scale)); higher = more stable (slower turnover).
[6] abbreviates: genetic background: cdc34-1, temperature: 37 C.
The mark [7] stands for this setting: genetic background: cdc53-1, temperature: 37 C.
[8] abbreviates: genetic background: das1 deletion, temperature: 30 C.
Setting [9] is: genetic background: das1 deletion, temperature: 37 C.
[10] abbreviates: genetic background: doa10 deletion, temperature: 30 C.
Setting [11] is: genetic background: wild type, temperature: 30 C.
[12] abbreviates: genetic background: wild type, temperature: 37 C.

“And” between values parts separate entries of the source, which are not always exact repeats. Equal values may be shown once. ± gives the standard deviation of the averaged measurements.
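Wherever protein stability index of tFT-peptide fusion (C-terminal peptide) is given: PSI is a weighted mean of sequencing reads over stability bins, variants kept only with over 10 reads, mCherry proximal and sfGFP distal, peptide attached via GGGS linker.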
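Wherever protein stability index of tFT-peptide fusion in deletion strain of DAS1 is given: PSI is a weighted mean of each variant's read distribution over the sorted stability bins, computed only for variants having over 10 reads in total.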
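Wherever protein stability index of tFT-peptide fusion in deletion strain of DOA10 is given: PSI per variant is the weighted mean of its sequencing read distribution over the sorted stability bins, counting only variants with over 10 reads summed across bins.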
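Wherever protein stability index of tFT-peptide fusion in wild type is given: PSI derived as read-weighted mean over the 8 sorting bins, only variants exceeding 10 total reads kept, mCherry placed adjacent to the peptide and sfGFP distal.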

ADTLPMCPLLLR: the protein stability index with Saccharomyces cerevisiae [1] was found to be 0.679; in the data set with Saccharomyces cerevisiae [2], 0.56.
The corresponding values for AIELPMCPLLLR are 0.677 and 0.221.
Taken in the same sequence, the figures for AIMLPMCPLLLR were 0.612 and 0.258.
Taken in the same sequence, the figures for AITLPACPLLLR were 0.657 and 0.291.
As for AITLPECPLLLR, the protein stability index in the data set with Saccharomyces cerevisiae [1] turned out to be 0.677; with Saccharomyces cerevisiae [2], 0.467.
Taken in the same sequence, the figures for AITLPMCHLLLR were 0.663 and 0.158.
The corresponding values for AITLPMCPCLLR are 0.651 and 0.367.
The corresponding values for AITLPMCPGLLR are 0.673 and 0.635.
Turning to AITLPMCPLLHR, the protein stability index with Saccharomyces cerevisiae [1] amounted to 0.716; in the data set with Saccharomyces cerevisiae [2], 0.628.
Regarding AITLPMCPLLLF, the protein stability index was 0.512 with Saccharomyces cerevisiae [1] and 0.462 in the data set on Saccharomyces cerevisiae [2].
On to AITLPMCPLLLL, for which the protein stability index stood at 0.625 in the data set on Saccharomyces cerevisiae [1] and 0.558 with Saccharomyces cerevisiae [2].
Taken in the same sequence, the figures for AITLPMCPLLLRE were 0.634 and 0.488.
Taken in the same sequence, the figures for AITLPMCPLLLRH were 0.646 and 0.222.
The corresponding values for AITLPMCPLLLRI are 0.485 and 0.0995.
With AITLPMCPLLLRR, the results for the protein stability index in the data set with Saccharomyces cerevisiae [1] and in the data set on Saccharomyces cerevisiae [2] were 0.673 and 0.34, respectively.
Taken in the same sequence, the figures for AITLPMCPLLLRV were 0.334 and 0.11.
Taken in the same sequence, the figures for AITLPMCPLRLR were 0.666 and 0.453.
In the case of ARWRVGLWRGAS, the protein stability index in the data set with Saccharomyces cerevisiae [2] stood at 0.37; in the data set on Saccharomyces cerevisiae [3] it was 0.448 ± 0.028; in the data set on Saccharomyces cerevisiae [4] (setting [6]) it was 0.66 ± 0.033; in the data set on Saccharomyces cerevisiae [4] (setting [7]), 0.7486 ± 0.0018; in the data set on Saccharomyces cerevisiae [4] (setting [8]), 0.648 ± 0.021; with Saccharomyces cerevisiae [4] (setting [9]), 0.764 ± 0.011. Besides, the protein stability index was 0.259 ± 0.0043 in the data set on Saccharomyces cerevisiae [4] (setting [10]), 0.3 ± 0.035 in the data set on Saccharomyces cerevisiae [4] (setting [11]), 0.612 ± 0.012 with Saccharomyces cerevisiae [4] (setting [12]) and 0.679 in the data set on Saccharomyces cerevisiae [5].
On to FSMRWTFRYWVN, for which the protein stability index was 0.0664 and 0.0463 with Saccharomyces cerevisiae [2]; 0.112 ± 0.021 with Saccharomyces cerevisiae [3]; 0.301 ± 0.016 in the data set with Saccharomyces cerevisiae [4] (setting [6]); 0.545 ± 0.03 in the data set on Saccharomyces cerevisiae [4] (setting [7]); 0.531 ± 0.025 in the data set with Saccharomyces cerevisiae [4] (setting [8]); 0.573 ± 0.011 in the data set on Saccharomyces cerevisiae [4] (setting [9]). In addition, the protein stability index in the data set with Saccharomyces cerevisiae [4] (setting [10]) is 0.0438 ± 0.012; in the data set on Saccharomyces cerevisiae [4] (setting [11]), 0.0542 ± 0.0043; with Saccharomyces cerevisiae [4] (setting [12]), 0.0931 ± 0.022; in the data set with Saccharomyces cerevisiae [5], 0.528 and 0.476.
As for LVVYLSCVACIN, the protein stability index with Saccharomyces cerevisiae [2] was 0.0193 and 0.0155; in the data set on Saccharomyces cerevisiae [3] it was 0.0328 ± 0.013; in the data set with Saccharomyces cerevisiae [4] (setting [6]), 0.0319 ± 0.015; with Saccharomyces cerevisiae [4] (setting [7]), 0.028 ± 0.0046; in the data set on Saccharomyces cerevisiae [4] (setting [8]) it was 0.0277 ± 0.0056; in the data set on Saccharomyces cerevisiae [4] (setting [9]) it was 0.0456 ± 0.0096. Further, the protein stability index was 0.0223 ± 0.0051 in the data set with Saccharomyces cerevisiae [4] (setting [10]); 0.0185 ± 0.0067 with Saccharomyces cerevisiae [4] (setting [11]); 0.0515 ± 0.034 with Saccharomyces cerevisiae [4] (setting [12]); 0.032 and 0.0307 with Saccharomyces cerevisiae [5].
In the case of STSCGYKFRTNN, the protein stability index was 0.237 in the data set with Saccharomyces cerevisiae [2] and 0.669 in the data set with Saccharomyces cerevisiae [5].
Taken in the same sequence, the figures for VNGAVGGWRLVG were 0.141 and 0.68.
Turning to VRGAVGGSRLVG, the protein stability index came out at 0.642 in the data set with Saccharomyces cerevisiae [2] and 0.669 with Saccharomyces cerevisiae [5].
The corresponding values for VRGAVGGWILVG are 0.25 and 0.638.
Taken in the same sequence, the figures for VRGAVGGWKLVG were 0.203 and 0.679.
As for VRGAVGGWRLGG, the protein stability index with Saccharomyces cerevisiae [2] was 0.69; with Saccharomyces cerevisiae [5], 0.628.
The corresponding values for VRGAVGGWRLSG are 0.403 and 0.67.
The corresponding values for VRGAVGGWRLVGI are 0.664 and 0.679.
With VRGAVGGWRLVL, the protein stability index amounted to 0.572 in the data set with Saccharomyces cerevisiae [2] and 0.68 with Saccharomyces cerevisiae [5].
Taken in the same sequence, the figures for VRGAVGLWRLVG were 0.164 and 0.675.
Consider VRGAVVGWRLVG, for which the protein stability index in the data set on Saccharomyces cerevisiae [2] was 0.141; with Saccharomyces cerevisiae [5], 0.66.
The corresponding values for VRGAYGGWRLVG are 0.114 and 0.664.
Taken in the same sequence, the figures for VTSCGYKFRTNN were 0.214 and 0.674.
Taken in the same sequence, the figures for WDKRNHLIKLLN were 0.113 and 0.602.
In the case of WRWRVGLWRGAS, the protein stability index stood at 0.186 in the data set with Saccharomyces cerevisiae [2] and 0.764 in the data set on Saccharomyces cerevisiae [5].
The corresponding values for WVVYLSCVACIN are 0.0879 and 0.0589.
